Legend:
HeLa Kyoto [1] = experiment: solubility in G1/S (NP-40 vs SDS abundance) (log2 ratio); higher = more soluble; settings: cell cycle stage: G1/S
HeLa Kyoto [2] = experiment: melting temperature (median over replicates), in situ; higher = more thermally stable
HeLa Kyoto [3] = experiment: solubility change mitosis vs G1/S (difference of NP-40 vs SDS log2 ratios) (log2 ratio difference); higher = more soluble in mitosis
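Throughout, for melting temperature (median over replicates), in situ: HeLa Kyoto cells synchronized by double thymidine or nocodazole block, proteins quantified by TMT10plex mass spectrometry, three independent biological replicates.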
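Throughout, for solubility change mitosis vs G1/S (difference of NP-40 vs SDS log2 ratios): synchronized HeLa Kyoto cells (double thymidine block for G1/S, nocodazole release for mitosis), protein amounts in NP-40 versus SDS lysates quantified by mass spectrometry, three biological replicates.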
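Throughout, for solubility in G1/S (NP-40 vs SDS abundance): HeLa Kyoto cells arrested at G1/S by double thymidine block, proteins quantified by TMT10plex mass spectrometry in mild NP-40 versus SDS extracts, three biological replicates.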

Sequence	solubility in G1/S (log2) (HeLa Kyoto [1])	melting temperature (HeLa Kyoto [2]; cell cycle stage: mitosis)	solubility change mitosis (log2) (HeLa Kyoto [3])	melting temperature (HeLa Kyoto [2]; cell cycle stage: G1/S)
MSDESASGSDPDLDPDVELEDAEEEEEEEEVAVEECDRDDEEDLLDDPSLEGMCGTEHAQLGEDGQQPPRCTSTTSSQSEPSEQLRRHQGKNLASEDPKKKRAQKPSHMRRNIRKLLREDQLEPVTKAAQQEELERRKRLEQQRKDYAAPIPTVPLEFLPEEIALRASDGPQLPPRVLAQEVICLDSSSGSEDEKSSRDEVIELSSGEEDTLHIVDSSESVSEDDEEEEKGGTHVNDVLNQRDALGRVLVNLNHPPEEENVFLAPQLARAVKPHQIGGIRFLYDNLVESLERFKTSSGFGCILAHSMGLGKTLQVISFIDVLFRHTPAKTVLAIVPVNTLQNWLAEFNMWLPPPEALPADNKPEEVQPRFFKVHILNDEHKTMASRAKVMADWVSEGGVLLMGYEMYRLLTLKKSFATGRPKKTKKRSHPVIIDLDEEDRQQEFRREFEKALCRPGPDVVICDEGHRIKNCQASTSQALKNIRSRRRVVLTGYPLQNNLIEYWCMVDFVRPDFLGTRQEFSNMFERPILNGQCIDSTPQDVRLMRYRSHVLHSLLEGFVQRRGHTVLKIHLPAKEENVILVRLSKIQRDLYTQFMDRFRDCGSSGWLGLNPLKAFCVCCKIWNHPDVLYEALQKESLANEQDLDVEELGSAGTSARCPPQGTKGKGEDSTLASSMGEATNSKFLQGVGFNPFQERGNNIVTYEWAKDLLTNYQTGVLENSPKMVLLFHLIEESVKLGDKILVFSQSLSTLALIEEFLGKREVPCPPGTEGQGAQKWVRNISYFRLDGSTPAFERERLINQFNDPSNLTTWLFLLSTRAGCLGVNLIGANRVVVFDASWNPCHDAQAVCRVYRYGQKKPCYIYRLVADYTLEKKIYDRQISKQGMSDRVVDDLNPMLNFTRKEVENLLHFVEKEPAPQVSLNVKGIKESVLQLACLKYPHLITKEPFEHESLLLNRKDHKLTKAEKKAAKKSYEEDKRTSVPYTRPSYAQYYPASDQSLTSIPAFSQRNWQPTLKGDEKPVASVRPVQSTPIPMMPRHVPLGGSVSSASSTNPSMNFPINYLQRAGVLVQKVVTTTDIVIPGLNSSTDVQARINAGESIHIIRGTKGTYIRTSDGRIFAVRATGKPKVPEDGRMAASGSQGPSCESTSNGRHSASSPKAPDPEGLARPVSPDSPEIISELQQYADVAAARESRQSSPSTNAALPGPPAQLMDSSAVPGTALGTEPRLGGHCLNSSLLVTGQPCGDRHPVLDLRGHKRKLATPPAAQESSRRRSRKGHLPAPVQPYEHGYPVSGGFAMPPVSLNHNLTTPFTSQAGENSLFMGSTPSYYQLSNLLADARLVFPVTTDPLVPAGPVSSSSTATSVTASNPSFMLNPSVPGILPSYSLPFSQPLLSEPRMFAPFPSPVLPSNLSRGMSIYPGYMSPHAGYPAGGLLRSQVPPFDSHEVAEVGFSSNDDEDKDDDVIEVTGK [RAD54L2]	-0.0448	49.7 °C	-0.143	–
MSGAGEALAPGPVGPQRVAEAGGGQLGSTAQGKCDKDNTEKDITQATNSHFTHGEMQDQSIWGNPSDGELIRTQPQRLPQLQTSAQVPSGEEIGKIKNGHTGLSNGNGIHHGAKHGSADNRKLSAPVSQKMHRKIQSSLSVNSDISKKSKVNAVFSQKTGSSPEDCCVHCILACLFCEFLTLCNIVLGQASCGICTSEACCCCCGDEMGDDCNCPCDMDCGIMDACCESSDCLEICMECCGICFPS [MDFIC]	-0.698	55.7 °C	0.671	57.2 °C
MTELAGASSSCCHRPAGRGAMQSVLHHFQRLRGREGGSHFINTSSPRGEAKMSITSDEVNFLVYRYLQESGFSHSAFTFGIESHISQSNINGTLVPPAALISILQKGLQYVEAEISINEDGTVFDGRPIESLSLIDAVMPDVVQTRQQAFREKLAQQQASAAAAAAAATAAATAATTTSAGVSHQNPSKNREATVNGEENRAHSVNNHAKPMEIDGEVEIPSSKATVLRGHESEVFICAWNPVSDLLASGSGDSTARIWNLNENSNGGSTQLVLRHCIREGGHDVPSNKDVTSLDWNTNGTLLATGSYDGFARIWTEDGNLASTLGQHKGPIFALKWNRKGNYILSAGVDKTTIIWDAHTGEAKQQFPFHSAPALDVDWQNNTTFASCSTDMCIHVCRLGCDRPVKTFQGHTNEVNAIKWDPSGMLLASCSDDMTLKIWSMKQEVCIHDLQAHNKEIYTIKWSPTGPATSNPNSNIMLASASFDSTVRLWDIERGVCTHTLTKHQEPVYSVAFSPDGKYLASGSFDKCVHIWNTQSGNLVHSYRGTGGIFEVCWNARGDKVGASASDGSVCVLDLRK [TBL1X]	-0.043	52.5 °C	-0.0781	–
MMATPNQTACNAESPVALEEAKTSGAPGSPQTPPERHDSGGSLPLTPRMESHSEDEDLAGAVGGLGWNSRSPRTQSPGGCSAEAVLARKKHRRRPSKRKRHWRPYLELSWAEKQQRDERQSQRASRVREEMFAKGQPVAPYNTTQFLMNDRDPEEPNLDVPHGISHPGSSGESEAGDSDGRGRAHGEFQRKDFSETYERFHTESLQGRSKQELVRDYLELEKRLSQAEEETRRLQQLQACTGQQSCRQVEELAAEVQRLRTENQRLRQENQMWNREGCRCDEEPGT [HEXIM2]	0.492	53.4 °C	0.139	54.6 °C
MWVCSTLWRVRTPARQWRGLLPASGCHGPAASSYSASAEPARVRALVYGHHGDPAKVVELKNLELAAVRGSDVRVKMLAAPINPSDINMIQGNYGFLPELPAVGGNEGVAQVVAVGSNVTGLKPGDWVIPANAGLGTWRTEAVFSEEALIQVPSDIPLQSAATLGVNPCTAYRMLMDFEQLQPGDSVIQNASNSGVGQAVIQIAAALGLRTINVVRDRPDIQKLSDRLKSLGAEHVITEEELRRPEMKNFFKDMPQPRLALNCVGGKSSTELLRQLARGGTMVTYGGMAKQPVVASVSLLIFKDLKLRGFWLSQWKKDHSPDQFKELILTLCDLIRRGQLTAPACSQVPLQDYQSALEASMKPFISSKQILTM [MECR]	0.282	54.1 °C	-0.0123	55 °C
MAERGRKRPCGPGEHGQRIEWRKWKQQKKEEKKKWKDLKLMKKLERQRAQEEQAKRLEEEEAAAEKEDRGRPYTLSVALPGSILDNAQSPELRTYLAGQIARACAIFCVDEIVVFDEEGQDAKTVEGEFTGVGKKGQACVQLARILQYLECPQYLRKAFFPKHQDLQFAGLLNPLDSPHHMRQDEESEFREGIVVDRPTRPGHGSFVNCGMKKEVKIDKNLEPGLRVTVRLNQQQHPDCKTYHGKVVSSQDPRTKAGLYWGYTVRLASCLSAVFAEAPFQDGYDLTIGTSERGSDVASAQLPNFRHALVVFGGLQGLEAGADADPNLEVAEPSVLFDLYVNTCPGQGSRTIRTEEAILISLAALQPGLIQAGARHT [C9ORF114]	-1.68	51.8 °C	0.696	–
MAASRSTRVTRSTVGLNGLDESFCGRTLRNRSIAHPEEISSNSQVRSRSPKKRPEPVPIQKGNNNGRTTDLKQQSTRESWVSPRKRGLSSSEKDNIERQAIENCERRQTEPVSPVLKRIKRCLRSEAPNSSEEDSPIKSDKESVEQRSTVVDNDADFQGTKRACRCLILDDCEKREIKKVNVSEEGPLNSAVVEEITGYLAVNGVDDSDSAVINCDDCQPDGNTKQNSIGSYVLQEKSVAENGDTDTQTSMFLDSRKEDSYIDHKVPCTDSQVQVKLEDHKIVTACLPVEHVNQLTTEPATGPFSETQSSLRDSEEEVDVVGDSSASKEQCKENTNNELDTSLESMPASGEPEPSPVLDCVSAQMMSLSEPQEHRYTLRTSPRRAAPTRGSPTKNSSPYRENGQFEENNLSPNETNATVSDNVSQSPTNPGEISQNEKGICCDSQNNGSEGVSKPPSEARLNIGHLPSAKESASQHITEEEDDDPDVYYFESDHVALKHNKDYQRLLQTIAVLEAQRSQAVQDLESLGRHQREALKNPIGFVEKLQKKADIGLPYPQRVVQLPEIVWDQYTHSLGNFEREFKNRKRHTRRVKLVFDKVGLPARPKSPLDPKKDGESLSYSMLPLSDGPEGSSSRPQMIRGRLCDDTKPETFNQLWTVEEQKKLEQLLIKYPPEEVESRRWQKIADELGNRTAKQVASRVQKYFIKLTKAGIPVPGRTPNLYIYSKKSSTSRRQHPLNKHLFKPSTFMTSHEPPVYMDEDDDRSCFHSHMNTAVEDASDDESIPIMYRNLPEYKELLQFKKLKKQKLQQMQAESGFVQHVGFKCDNCGIEPIQGVRWHCQDCPPEMSLDFCDSCSDCLHETDIHKEDHQLEPIYRSETFLDRDYCVSQGTSYNYLDPNYFPANR [ZZZ3]	-0.198	49.1 °C	0.273	48.9 °C
MPPERRRRMKLDRRTGAKPKRKPGMRPDWKAGAGPGGPPQKPAPSSQRKPPARPSAAAAAIAVAAAEEERRLRQRNRLRLEEDKPAVERCLEELVFGDVENDEDALLRRLRGPRVQEHEDSGDSEVENEAKGNFPPQKKPVWVDEEDEDEEMVDMMNNRFRKDMMKNASESKLSKDNLKKRLKEEFQHAMGGVPAWAETTKRKTSSDDESEEDEDDLLQRTGNFISTSTSLPRGILKMKNCQHANAERPTVARISSVQFHPGAQIVMVAGLDNAVSLFQVDGKTNPKIQSIYLERFPIFKACFSANGEEVLATSTHSKVLYVYDMLAGKLIPVHQVRGLKEKIVRSFEVSPDGSFLLINGIAGYLHLLAMKTKELIGSMKINGRVAASTFSSDSKKVYASSGDGEVYVWDVNSRKCLNRFVDEGSLYGLSIATSRNGQYVACGSNCGVVNIYNQDSCLQETNPKPIKAIMNLVTGVTSLTFNPTTEILAIASEKMKEAVRLVHLPSCTVFSNFPVIKNKNISHVHTMDFSPRSGYFALGNEKGKALMYRLHHYSDF [UTP18]	-2.03	52.7 °C	0.81	–
MTTKDYPSLWGFGTTKTFKIPIEHLDFKYIEKCSDVKHLEKILCVLRSGEEGYYPELTEFCEKHLQALAPESRALRKDKPAATAASFTAEEWEKIDGDIKSWVSEIKKEEDKMHFHETETFPAMKDNLPPVRGSNSCLHVGKEKYSKRPTKKKTPRDYAEWDKFDVEKECLKIDEDYKEKTVIDKSHLSKIETRIDTAGLTEKEKDFLATREKEKGNEAFNSGDYEEAVMYYTRSISALPTVVAYNNRAQAEIKLQNWNSAFQDCEKVLELEPGNVKALLRRATTYKHQNKLREATEDLSKVLDVEPDNDLAKKTLSEVERDLKNSEAASETQTKGKRMVIQEIENSEDEEGKSGRKHEDGGGDKKPAEPAGAARAAQPCVMGNIQKKLTGKAEGGKRPARGAPQRGQTPEAGADKRSPRRASAAAAAGGGATGHPGGGQGAENPAGLKSQGNELFRSGQFAEAAGKYSAAIALLEPAGSEIADDLSILYSNRAACYLKEGNCSGCIQDCNRALELHPFSMKPLLRRAMAYETLEQYGKAYVDYKTVLQIDCGLQLANDSVNRLSRILMELDGPNWREKLSPIPAVPASVPLQAWHPAKEMISKQAGDSSSHRQQGITDEKTFKALKEEGNQCVNDKNYKDALSKYSECLKINNKECAIYTNRALCYLKLCQFEEAKQDCDQALQLADGNVKAFYRRALAHKGLKNYQKSLIDLNKVILLDPSIIEAKMELEEVTRLLNLKDKTAPFNKEKERRKIEIQEVNEGKEEPGRPAGEVSMGCLASEKGGKSSRSPEDPEKLPIAKPNNAYEFGQIINALSTRKDKEACAHLLAITAPKDLPMFLSNKLEGDTFLLLIQSLKNNLIEKDPSLVYQHLLYLSKAERFKMMLTLISKGQKELIEQLFEDLSDTPNNHFTLEDIQALKRQYEL [SPAG1]	0.51	48.5 °C	-0.0757	49.2 °C
MAENREPRGAVEAELDPVEYTLRKRLPSRLPRRPNDIYVNMKTDFKAQLARCQKLLDGGARGQNACSEIYIHGLGLAINRAINIALQLQAGSFGSLQVAANTSTVELVDELEPETDTREPLTRIRNNSAIHIRVFRVTPK [POP7]	0.19	54.9 °C	-0.0753	–
